{"source": "patent US20160279215A1", "about": "“NOVEL PEPTIDES AND COMBINATION OF PEPTIDES FOR USE IN IMMUNOTHERAPY AGAINST VARIOUS TUMORS” (immatics biotechnologies GmbH, priority 2015, published 2016)", "data": [{"target": "T1, HLA-A*02:01 (human)", "T1 construct": "MHC monomers captured on streptavidin plates; the UV-sensitive peptide is cleaved and exchanged with the test peptide; also called peptide-receptive MHC molecules; MHC class I", "test": "UV ligand-exchange ELISA (anti-b2m); + = exchange yield >=10%", "source_text": "(§1) Candidate peptides for T cell based therapies according to the present invention were further tested for their MHC binding capacity (affinity). The individual peptide-MHC complexes were produced by UV-ligand exchange, where a UV-sensitive peptide is cleaved upon UV-irradiation, and exchanged with the peptide of interest as analyzed. Only peptide candidates that can effectively bind and stabilize the peptide-receptive MHC molecules prevent dissociation of the MHC complexes. To determine the yield of the exchange reaction, an ELISA was performed based on the detection of the light chain (β2m) of stabilized MHC complexes. The assay was performed as generally described in Rodenko et al. (Rodenko et al., 2006).\n(§2) 96 well MAXISorp plates (NUNC) were coated over night with 2 ug/ml streptavidin in PBS at room temperature, washed 4× and blocked for 1 h at 37° C. in 2% BSA containing blocking buffer. Refolded HLA-A*02:01/MLA-001 monomers served as standards, covering the range of 15-500 ng/ml. Peptide-MHC monomers of the UV-exchange reaction were diluted 100 fold in blocking buffer. Samples were incubated for 1 h at 37° C., washed four times, incubated with 2 ug/ml HRP conjugated anti-β2m for 1 h at 37° C., washed again and detected with TMB solution that is stopped with […]. Absorption was measured at 450 nm. Candidate peptides that show a high exchange yield (preferably higher than 50%, most preferred higher than 75%) are generally preferred for a generation and production of antibodies or fragments thereof, and/or T cell receptors or fragments thereof, as they show sufficient avidity to the MHC molecules and prevent dissociation of the MHC complexes.", "units": {"peptide exchange yield": "%"}, "values": [{"binder": "QTAPEEAFIKL", "peptide exchange yield": "10 to 20"}, {"binder": "SEMEELPSV", "peptide exchange yield": "10 to 20"}, {"binder": "GPGIFPPPPPQP", "peptide exchange yield": "10 to 20"}, {"binder": "AQHLSTLLL", "peptide exchange yield": "10 to 20"}]}, {"target": "T1, HLA-A*02:01", "test": "UV ligand-exchange ELISA (anti-b2m); ++++ = exchange yield >=75%", "source_text": "as §1, §2", "units": {"peptide exchange yield": "%"}, "values": [{"binder": "FLNAIETAL", "peptide exchange yield": "≥ 75"}, {"binder": "FLLEREQLL", "peptide exchange yield": "≥ 75"}, {"binder": "RLFEEVLGV", "peptide exchange yield": "≥ 75"}]}]}
